Source: PMC6039492

Experiments:
[1] = target: GABAB receptor (heterodimer of GABAB1 and GABAB2), untagged and SNAP-tagged subunits in three combinations (rat) (UniProt Q9Z0U4); test: two-photon scanning number and brightness (sN&B) fluctuation microscopy; live cultured rat hippocampal neurons, GABAB1 and/or GABAB2 SNAP-tagged and labelled with Alexa488, corrected for the theoretical number of fluorophores per heterodimer; across expression levels
[2] = target: mGlu2 mutated to be locked in the inactive conformation (HA-ST-mGlu2-515NGlyc-L698C-L729C-F756D), cross-linked with CuP (rat) (UniProt P31421); test: two-photon scanning number and brightness (sN&B) fluctuation microscopy; live cultured rat hippocampal neurons, SNAP-tag labelled with Alexa488, incubated with 150 μM CuP for the last 10 min of labelling, imaged in the absence of ligand; 90-600 subunits/Veff; apparent stoichiometry (lower with CuP)

GABAB receptor (heterodimer of GABAB1 and GABAB2), untagged and SNAP-tagged subunits in three combinations, sequence (Q9Z0U4 20-960): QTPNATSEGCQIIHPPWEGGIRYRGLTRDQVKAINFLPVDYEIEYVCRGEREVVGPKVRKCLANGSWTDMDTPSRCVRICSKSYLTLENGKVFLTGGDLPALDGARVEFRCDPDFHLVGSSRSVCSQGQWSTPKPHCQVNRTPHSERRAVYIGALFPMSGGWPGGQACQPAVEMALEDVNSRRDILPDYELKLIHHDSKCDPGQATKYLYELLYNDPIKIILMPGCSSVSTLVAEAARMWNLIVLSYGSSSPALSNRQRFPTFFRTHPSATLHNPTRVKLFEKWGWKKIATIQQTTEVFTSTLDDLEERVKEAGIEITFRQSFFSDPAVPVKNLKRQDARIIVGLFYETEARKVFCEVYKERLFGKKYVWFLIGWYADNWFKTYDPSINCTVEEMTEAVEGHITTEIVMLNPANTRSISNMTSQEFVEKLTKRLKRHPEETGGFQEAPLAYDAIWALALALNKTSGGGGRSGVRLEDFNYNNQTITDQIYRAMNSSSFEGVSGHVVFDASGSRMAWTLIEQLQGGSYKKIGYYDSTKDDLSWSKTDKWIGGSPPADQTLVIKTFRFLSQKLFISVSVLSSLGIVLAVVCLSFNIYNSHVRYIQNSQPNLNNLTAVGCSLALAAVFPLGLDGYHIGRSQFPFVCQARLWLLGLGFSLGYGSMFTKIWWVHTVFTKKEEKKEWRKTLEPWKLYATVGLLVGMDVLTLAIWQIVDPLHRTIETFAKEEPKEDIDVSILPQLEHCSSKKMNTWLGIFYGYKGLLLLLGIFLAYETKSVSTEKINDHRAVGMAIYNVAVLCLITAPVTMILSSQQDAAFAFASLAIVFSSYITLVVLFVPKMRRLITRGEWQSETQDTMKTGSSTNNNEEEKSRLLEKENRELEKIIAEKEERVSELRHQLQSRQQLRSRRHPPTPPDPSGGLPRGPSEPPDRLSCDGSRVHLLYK
GABAB receptor (heterodimer of GABAB1 and GABAB2), untagged and SNAP-tagged subunits in three combinations, sequence (O88871 41-940): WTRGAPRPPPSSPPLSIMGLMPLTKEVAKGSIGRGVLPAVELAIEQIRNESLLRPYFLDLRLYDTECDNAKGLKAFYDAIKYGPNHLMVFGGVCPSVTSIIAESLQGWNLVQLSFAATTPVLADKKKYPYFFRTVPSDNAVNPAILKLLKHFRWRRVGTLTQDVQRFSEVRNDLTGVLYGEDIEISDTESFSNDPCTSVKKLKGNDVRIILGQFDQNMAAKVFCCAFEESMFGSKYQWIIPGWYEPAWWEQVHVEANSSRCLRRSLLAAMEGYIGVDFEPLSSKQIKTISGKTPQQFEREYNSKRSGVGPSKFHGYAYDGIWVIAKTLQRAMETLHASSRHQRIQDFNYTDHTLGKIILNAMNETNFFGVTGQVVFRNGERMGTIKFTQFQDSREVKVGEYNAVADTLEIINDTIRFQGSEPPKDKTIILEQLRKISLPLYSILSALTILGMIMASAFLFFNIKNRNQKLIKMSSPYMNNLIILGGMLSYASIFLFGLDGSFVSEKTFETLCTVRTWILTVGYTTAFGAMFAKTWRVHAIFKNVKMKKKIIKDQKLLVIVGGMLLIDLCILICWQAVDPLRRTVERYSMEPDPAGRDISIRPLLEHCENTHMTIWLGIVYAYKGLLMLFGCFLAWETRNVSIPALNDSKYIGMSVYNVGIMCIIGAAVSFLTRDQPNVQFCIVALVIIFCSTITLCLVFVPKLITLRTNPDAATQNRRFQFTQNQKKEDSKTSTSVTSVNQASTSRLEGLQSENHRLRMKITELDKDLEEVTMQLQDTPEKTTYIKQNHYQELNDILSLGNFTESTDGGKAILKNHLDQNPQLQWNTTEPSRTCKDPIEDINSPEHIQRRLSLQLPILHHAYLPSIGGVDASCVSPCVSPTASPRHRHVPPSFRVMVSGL

| stoichiometry N (per diffusing complex) [1] | stoichiometry N (subunits/complex) [2] | Substance |
| --- | --- | --- |
| 2 to 8 |  | GABAB receptor (heterodimer of GABAB1 and GABAB2), untagged and SNAP-tagged subunits in three combinations (from UniProt Q9Z0U4 20-960; O88871 41-940) (complex) |
|  | 2.3 | mGlu2 mutated to be locked in the inactive conformation (HA-ST-mGlu2-515NGlyc-L698C-L729C-F756D), cross-linked with CuP (from UniProt P31421 19-872) (receptor) |
